According to patent US20250011363A1, “OPTIMIZED SHORTENED PEPTIDE THAT BINDS TO ACETYLCHOLINE RECEPTOR, AND USE THEREOF” (SKINMED CO., LTD., priority 2021, published 2025):

Columns and labels:
acetylcholine receptor [1] = assay: SPR, AchR immobilized on CM5 chip, peptide 10 uM
acetylcholine receptor [2] = assay: SPR, receptor on CM5 chip, peptide 10 µM

Binder	Binding affinity (RU) (acetylcholine receptor [1])	Binding affinity (RU) (acetylcholine receptor [2])
KRRYTR [6mer-1-358]	124 RU	
RKQRLK [6mer-1-348]	142 RU	
KKLLCR [6mer-1-345]	147 RU	
KRGYSK [6mer-1-356]	153 RU	
KRVVTK [6mer-1-336]	154 RU	
KRRQTR [6mer-1-357]	148 RU	
KKRIYR [6mer-1-346]	123 RU	
RKRQSK [6mer-1-364]	124 RU	
RKVFYR [6mer-1-355]	148 RU	
KKSIQK [6mer-1-339]	147 RU	
KRLLCK [6mer-1-340]	142 RU	
RKVFRK [6mer-1-352]	142 RU	
RKRFCR [6mer-1-342]	131 RU	
KRWFCR [6mer-1-366]	133 RU	
RRSQRR [6mer-1-335]	148 RU	
KKVFLK [6mer-1-354]	153 RU	
RKQQQR [6mer-1-341]	128 RU	
KRQIRR [6mer-1-363]	121 RU	

Binder	Binding affinity (RU) (acetylcholine receptor [1])	Binding affinity (RU) (acetylcholine receptor [2])
KKLQTK [6mer-1-350]	153 RU	
KRLYLK [6mer-1-353]	126 RU	
RKGFSK [6mer-1-367]	154 RU	
KRVFLK [6mer-1-360]	148 RU	
RKSRRR [6mer-1-337]	144 RU	
KKSQCR [6mer-1-344]	125 RU	
KKWYRK [6mer-1-369]	144 RU	
KKQVLK [6mer-1-338]	127 RU	
KKLYTK [6mer-1-343]	135 RU	
KKQQSK [6mer-1-347]	126 RU	
KRQFLR [6mer-1-359]	131 RU	
RRGLRK [6mer-1-351]	141 RU	
KRLYSK [6mer-1-349]	123 RU	
RKSVQR [6mer-1-361]	127 RU	
KKRICK [6mer-1-365]	142 RU	
RRRFSK [6mer-1-368]	145 RU	
KRVVYK [6mer-1-362]	133 RU	

Continued, values first:

Binding affinity (RU) (acetylcholine receptor [1])	Binding affinity (RU) (acetylcholine receptor [2])	Binder
148 RU		KRLYYK [6mer-1-393]
	121 RU	KKSQLR [6mer-1-532]
	126 RU	KKRLCR [6mer-1-534]
154 RU		RRVFYR [6mer-1-375]
	139 RU	RRQLRR [6mer-1-525]
	148 RU	KKGRQK [6mer-1-524]
135 RU		RRVQTR [6mer-1-392]
	126 RU	RKRRLR [6mer-1-522]
	127 RU	KRQIYK [6mer-1-520]
148 RU		RKRRTK [6mer-1-383]
	153 RU	KRWVLK [6mer-1-518]
142 RU		RRLLQR [6mer-1-388]
	139 RU	RRSLCK [6mer-1-529]
131 RU		RRQRCK [6mer-1-391]
	135 RU	RKGQTK [6mer-1-531]
	128 RU	RKVISR [6mer-1-521]
	139 RU	KRSYTR [6mer-1-528]
139 RU		KRQYTR [6mer-1-382]
	137 RU	KRLVSK [6mer-1-530]
121 RU		RRQLRK [6mer-1-376]
121 RU		RKLQQR [6mer-1-390]
149 RU		KRGVLK [6mer-1-373]

Binding affinity (RU) (acetylcholine receptor [1])	Binding affinity (RU) (acetylcholine receptor [2])	Binder
	145 RU	RKWFSR [6mer-1-533]
153 RU		KRSLQK [6mer-1-378]
	148 RU	KRGYTR [6mer-1-526]
153 RU		KRRISK [6mer-1-379]
124 RU		RKGFYR [6mer-1-381]
125 RU		RKLFCK [6mer-1-389]
	142 RU	KKGIYR [6mer-1-527]
127 RU		KRQVLR [6mer-1-385]
142 RU		RKQLYK [6mer-1-370]
127 RU		RRSYQK [6mer-1-386]
148 RU		RKVICK [6mer-1-384]
149 RU		KKVRRR [6mer-1-394]
121 RU		KRLQLR [6mer-1-380]
148 RU		KRWITR [6mer-1-377]
148 RU		KKGRLR [6mer-1-387]
	139 RU	KKGLCK [6mer-1-517]
153 RU		KRSLTR [6mer-1-371]
148 RU		KKQFQK [6mer-1-374]
145 RU		RKLRSK [6mer-1-372]
	147 RU	KRRQCK [6mer-1-519]
	139 RU	KRRRSK [6mer-1-523]
